The values below come from US20140335120A1.

The target in experiment [1] is PSA65-74 peptide presented by H-2Db (PSA65-74 H-2Db tetramer; EL4 cells pulsed with H-2Db peptide) (human) (UniProt P07288).
Experiment [2] has the same target. The experiment can be described thus: PSA tetramer staining of splenocytes on day 6 after the boost, flow cytometry.

With “splenocytes (PSA-specific CD8+ T cells / CTLs) of C57BL/6 mice immunized with LmddA-LLO-PSA (cells without a defined receptor)”, the percentage of CD8+CD62Llow IFN-γ secreting cells (intracellular cytokine staining after 5 h stimulation with PSA peptide) in experiment [1] is 200 fold.

For the substance “splenocytes (PSA-specific CD8+ T cells / CTLs) of C57BL/6 mice immunized with LmddA-LLO-PSA”, the percent PSA tetramer+CD8+CD62Llow cells in experiment [2] is 23%.
